Test results from the supplement of paper PMC9233669.
This sample holds only a part of the variants without activity.

Experiments:
biotinyl-Phe-oxazolone = assay: self-aminoacylation, catalytic enhancement (BFO) (fold over background); higher = more active; k-Seq, kA / k0A0; sequences stand for … in GGGAAUGGAUCCACAUCUACGAAUUC…UUCACUGCAGACUUGACGAAGCUG
Procedure, shortened: (§1)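 Working in 50 μL HEPES/NaCl/KCl/MgCl2/CaCl2 buffer with 5% acetonitrile at pH 6.9–7.0, mutagenized RNA pools (0.43 μM; 21-nt variable region) were reacted with 2–1250 μM of each biotinyl-aminoacyl-oxazolone for 90 minutes at room temperature. Streptavidin capture followed, with quantification by triplicate qPCR and Illumina sequencing. Catalytic enhancement is reported as median kA over the uncatalyzed rate, the low-activity peak of a bimodal Gaussian fit to the data.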

biotinyl-Ile-oxazolone = assay: self-aminoacylation, catalytic enhancement (BIO) (fold over background); higher = more active; k-Seq, kA / k0A0; sequences stand for … in GGGAAUGGAUCCACAUCUACGAAUUC…UUCACUGCAGACUUGACGAAGCUG
Procedure, shortened: as §1

biotinyl-Met-oxazolone = assay: self-aminoacylation, catalytic enhancement (BMO) (fold over background); higher = more active; k-Seq, kA / k0A0; sequences stand for … in GGGAAUGGAUCCACAUCUACGAAUUC…UUCACUGCAGACUUGACGAAGCUG
Procedure, shortened: as §1

biotinyl-Val-oxazolone = assay: self-aminoacylation, catalytic enhancement (BVO) (fold over background); higher = more active; k-Seq, kA / k0A0; sequences stand for … in GGGAAUGGAUCCACAUCUACGAAUUC…UUCACUGCAGACUUGACGAAGCUG
Procedure, shortened: as §1

biotinyl-Leu-oxazolone = assay: self-aminoacylation, catalytic enhancement (BLO) (fold over background); higher = more active; k-Seq, kA / k0A0; sequences stand for … in GGGAAUGGAUCCACAUCUACGAAUUC…UUCACUGCAGACUUGACGAAGCUG
Procedure, shortened: as §1

biotinyl-Trp-oxazolone = assay: self-aminoacylation, catalytic enhancement (BWO) (fold over background); higher = more active; k-Seq, kA / k0A0; sequences stand for … in GGGAAUGGAUCCACAUCUACGAAUUC…UUCACUGCAGACUUGACGAAGCUG
Procedure, shortened: as §1

| Sequence | self-aminoacylation (biotinyl-Phe-oxazolone) | self-aminoacylation (biotinyl-Ile-oxazolone) | self-aminoacylation (biotinyl-Met-oxazolone) | self-aminoacylation (biotinyl-Val-oxazolone) | self-aminoacylation (biotinyl-Leu-oxazolone) | self-aminoacylation (biotinyl-Trp-oxazolone) |
| --- | --- | --- | --- | --- | --- | --- |
| CCACACUUCAAGCAAUCAGCC [Fam1B.1 aminoacylation ribozyme variant] | 3.01 | 1.04 | 0.884 | 1.72 | 1.51 | 2.26 |
| CUACACCUAGGUCAUCGGGUG [Fam2.2 aminoacylation ribozyme variant] | 3.13 | 1.72 | 2.27 | 1.72 | 2.12 | 2.08 |
| AAGGUUGCUAACAGUCGCAAG [Fam3.1 aminoacylation ribozyme variant] | 3.97 | 1.33 | 1.06 | 1.11 | 1.83 | 1.65 |
| AUUCACCGAGGACAUCGGGUG [Fam2.2 aminoacylation ribozyme variant] | 35.9 | 3.59 | 5.56 | 3.78 | 6.02 | 5.74 |
| AAGUUUGCUAGUAGUCACAAG [Fam3.1 aminoacylation ribozyme variant] | 1.37 | 1.05 | 1.43 | 1.08 | 0.962 | 0.986 |
| ACUACCGUGGUCAUCGAGUGA [Fam2.1 aminoacylation ribozyme variant] | 18 | 3.41 | 5.28 | 3.29 | 5.21 | 6.91 |
| CCACACUUCAAGCAAUCCCUC [Fam1B.1 aminoacylation ribozyme variant] | 0.896 | 1.04 | 0.846 | 1.15 | 0.729 | 1.35 |
| AUUCACCUAGUUCAUGGGGUG [Fam2.2 aminoacylation ribozyme variant] | 66 | 4.31 | 8.55 | 4.43 | 10.6 | 7.05 |
| AACUUUGCUAAUAUUCGCAAG [Fam3.1 aminoacylation ribozyme variant] | 1.42 | 1.76 | 1.51 | 1.65 | 1.94 | 1.75 |
| CAACACUUCAAGCAAGCGGUC [Fam1B.1 aminoacylation ribozyme variant] | 0.831 | 1.1 | 1.24 | 0.953 | 1.25 | 0.593 |
| AAGUUUGCUAAUAGUCGCAGC [Fam3.1 aminoacylation ribozyme variant] | 1.11 | 1.17 | 0.956 | 0.913 | 0.821 | 1.99 |
| AUUCACUUAGGUCAUCUGGUG [Fam2.2 aminoacylation ribozyme variant] | 12.6 | 2.06 | 3.11 | 2.1 | 3.65 | 3.19 |
| CUACCUCAAACAAUCGGUGUG [Fam1A.1 aminoacylation ribozyme variant] | 0.583 | 1.19 | 0.952 | 1.11 | 2.02 | 0.845 |
| CGACACUUCAAUCAAUCGGUC [Fam1B.1 aminoacylation ribozyme variant] | 14.7 | 1.04 | 0.958 | 1.05 | 1.15 | 7.59 |
| CUACUUUAAACAACCGGUCUG [Fam1A.1 aminoacylation ribozyme variant] | 0.725 | 0.909 | 0.996 | 0.973 | 0.978 | 1.07 |
| AUGUUUGCUAAUAGUCGCAUG [Fam3.1 aminoacylation ribozyme variant] | 1.52 | 1.34 | 1.58 | 1.39 | 1.72 | 1.38 |
| CUUUCCCUGGUCAUCGAGUGA [Fam2.1 aminoacylation ribozyme variant] | 7.03 | 4.62 | 8.78 | 5.04 | 8.95 | 10.6 |
| AUUAACCUAGGUAAUCGGGUG [Fam2.2 aminoacylation ribozyme variant] | 12.5 | 1.78 | 2.62 | 1.66 | 2.3 | 2.42 |
| CUUACCCUGGUCAUCAAGUGA [Fam2.1 aminoacylation ribozyme variant] | 4.44 | 1.67 | 2.58 | 1.93 | 2.58 | 3.4 |
| AUUCACAUAGUUCAUCGGGUG [Fam2.2 aminoacylation ribozyme variant] | 19.2 | 2.27 | 2.76 | 2.3 | 3.48 | 2.42 |
| AUUCACCGAGGUCAUCCGGUG [Fam2.2 aminoacylation ribozyme variant] | 80.2 | 7.31 | 9.07 | 8.04 | 12.4 | 10.1 |
| GCUACCCUGGUCAUCGAGUGA [Fam2.1 aminoacylation ribozyme variant] | 29.5 | 6.27 | 11.4 | 6.39 | 12.3 | 15.5 |

| Sequence | self-aminoacylation (biotinyl-Phe-oxazolone) | self-aminoacylation (biotinyl-Ile-oxazolone) | self-aminoacylation (biotinyl-Met-oxazolone) | self-aminoacylation (biotinyl-Val-oxazolone) | self-aminoacylation (biotinyl-Leu-oxazolone) | self-aminoacylation (biotinyl-Trp-oxazolone) |
| --- | --- | --- | --- | --- | --- | --- |
| ACUACCCUUGUCAUCGAGUGA [Fam2.1 aminoacylation ribozyme variant] | 28.7 | 3.28 | 6.22 | 3.24 | 6.34 | 6.54 |
| AUUACCUUGGUCAUCGAGUGU [Fam2.1 aminoacylation ribozyme variant] | 3.39 | 2.19 | 3.47 | 2.37 | 3.59 | 3.8 |
| AUUCACGUAGCUCAUCGGGUG [Fam2.2 aminoacylation ribozyme variant] | 17.7 | 2.24 | 3.44 | 3.52 | 2.42 | 2.88 |
| AUUCACCUAUGUCAUCGGGCG [Fam2.2 aminoacylation ribozyme variant] | 10.4 | 2.22 | 2.79 | 2.13 | 2.87 | 2.2 |
| CCCCACUUCAGGCAAUCGGUC [Fam1B.1 aminoacylation ribozyme variant] | 9.29 | 2.56 | 2.35 | 2.64 | 2.63 | 5.21 |
| UUUACCCUGGUCAUCGAGUAA [Fam2.1 aminoacylation ribozyme variant] | 30.5 | 4.45 | 13.9 | 5.3 | 11.7 | 11.8 |
| AUUACCCUGCUGAUCGAGUGA [Fam2.1 aminoacylation ribozyme variant] | 10.4 | 1.93 | 2.68 | 1.67 | 2.87 | 2.77 |
| AUUCACCAAGGUCAUCGAGUG [Fam2.2 aminoacylation ribozyme variant] | 14.4 | 2.27 | 4.1 | 2.23 | 4.52 | 2.57 |
| CUACUUCCAACAAUCCGUCUG [Fam1A.1 aminoacylation ribozyme variant] | 0.668 | 0.794 | 0.771 | 0.886 | 0.999 | 0.524 |
| CCAUACUACAAGCAAUCGGUC [Fam1B.1 aminoacylation ribozyme variant] | 0.942 | 0.884 | 0.696 | 0.779 | 0.772 | 0.655 |
| CAUACCCUGGUCAUCGAGUGA [Fam2.1 aminoacylation ribozyme variant] | 17.6 | 5.75 | 11.3 | 6.04 | 11.8 | 11.7 |
| AAGUUUGCUAAUAGACGGAAG [Fam3.1 aminoacylation ribozyme variant] | 0.91 | 0.637 | 0.544 | 0.584 | 0.406 | 0.764 |
| AAGUUUGCGAAUAGUCGCAGG [Fam3.1 aminoacylation ribozyme variant] | 4.04 | 1.7 | 1.79 | 1.59 | 1.89 | 2.44 |
| AAGUUUGCUAAAAGUCUCAAG [Fam3.1 aminoacylation ribozyme variant] | 4.24 | 1.11 | 1.24 | 0.996 | 0.875 | 1.45 |
| AAGGUGGCUAAUAGUCGCAAG [Fam3.1 aminoacylation ribozyme variant] | 1.82 | 1.63 | 1.65 | 1.41 | 1.74 | 1.95 |
| CUACUCCGAACAAUCGGUCUG [Fam1A.1 aminoacylation ribozyme variant] | 0.826 | 0.847 | 0.668 | 0.812 | 0.889 | 0.806 |
| CUACUUCGAACAAUCGGUCCG [Fam1A.1 aminoacylation ribozyme variant] | 2.05 | 0.879 | 1.09 | 0.738 | 0.865 | 0.959 |
| AUUACCCUGGUCAGCAAGUGA [Fam2.1 aminoacylation ribozyme variant] | 9.67 | 2.95 | 4.16 | 2.61 | 4 | 4.8 |
| AUUACCCUGGUCAUCGAAUAA [Fam2.1 aminoacylation ribozyme variant] | 0.904 | 0.801 | 0.987 | 1.15 | 0.914 | 1.41 |
| AUUCACCUAGGUCGGCGGGUG [Fam2.2 aminoacylation ribozyme variant] | 41.6 | 4.39 | 6.63 | 5.49 | 8.86 | 6.02 |
| CUUACCCUGGUCAUCUAGUGA [Fam2.1 aminoacylation ribozyme variant] | 29.7 | 3.75 | 7.9 | 3.89 | 8.12 | 10.4 |
